Measurements as given in paper PMC3020710 (The Journal of Biological Chemistry, 2010).
Read-outs that look alike come from different tables or passages of the source.

T1: GST-Sall1 (full length) (mouse, UniProt Q9ER74 1-1322)
T1 sequence (looked up): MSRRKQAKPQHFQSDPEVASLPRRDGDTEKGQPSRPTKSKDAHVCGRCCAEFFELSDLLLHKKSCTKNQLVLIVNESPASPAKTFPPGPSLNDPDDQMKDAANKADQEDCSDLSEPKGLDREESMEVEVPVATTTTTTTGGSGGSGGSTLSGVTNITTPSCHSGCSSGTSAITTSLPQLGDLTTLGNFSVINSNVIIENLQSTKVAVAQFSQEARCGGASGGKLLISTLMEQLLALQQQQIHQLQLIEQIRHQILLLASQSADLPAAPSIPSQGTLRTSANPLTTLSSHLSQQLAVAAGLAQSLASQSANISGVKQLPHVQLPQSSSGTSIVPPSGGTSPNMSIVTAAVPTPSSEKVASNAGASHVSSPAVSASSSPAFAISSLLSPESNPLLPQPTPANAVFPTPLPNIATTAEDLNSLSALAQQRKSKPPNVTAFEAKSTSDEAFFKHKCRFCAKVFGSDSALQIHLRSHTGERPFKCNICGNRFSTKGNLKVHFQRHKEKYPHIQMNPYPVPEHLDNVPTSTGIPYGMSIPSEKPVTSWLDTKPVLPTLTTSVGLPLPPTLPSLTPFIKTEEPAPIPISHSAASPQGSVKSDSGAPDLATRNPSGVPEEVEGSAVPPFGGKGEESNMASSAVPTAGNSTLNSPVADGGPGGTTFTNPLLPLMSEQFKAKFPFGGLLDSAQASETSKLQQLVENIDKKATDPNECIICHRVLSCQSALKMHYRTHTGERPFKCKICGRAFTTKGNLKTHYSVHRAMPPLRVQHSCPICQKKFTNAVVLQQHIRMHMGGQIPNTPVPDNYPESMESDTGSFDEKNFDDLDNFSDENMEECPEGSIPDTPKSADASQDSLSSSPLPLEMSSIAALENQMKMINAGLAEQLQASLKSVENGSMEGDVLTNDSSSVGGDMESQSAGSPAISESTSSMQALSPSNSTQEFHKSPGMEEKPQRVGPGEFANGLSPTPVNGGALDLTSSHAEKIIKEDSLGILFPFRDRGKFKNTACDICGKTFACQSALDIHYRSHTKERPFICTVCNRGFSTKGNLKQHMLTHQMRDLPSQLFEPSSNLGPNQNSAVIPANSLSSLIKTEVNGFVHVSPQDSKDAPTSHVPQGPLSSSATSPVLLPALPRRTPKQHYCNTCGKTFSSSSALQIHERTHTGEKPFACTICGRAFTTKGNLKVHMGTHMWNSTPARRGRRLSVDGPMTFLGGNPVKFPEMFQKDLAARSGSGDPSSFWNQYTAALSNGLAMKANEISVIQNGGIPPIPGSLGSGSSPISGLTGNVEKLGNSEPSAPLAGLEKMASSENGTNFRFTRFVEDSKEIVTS

B1: His-Sox2 aa 1-240 (domain or fragment)
chain: not shown
B2: His-Sox2 (full length) (natural protein)
chain: not shown

Legend:
GST-Sall1 (full length) [1] = target: T1, GST-Sall1 (full length); assay: pull-down
GST-Sall1 (full length) [2] = target: T1, GST-Sall1 (full length); assay: pull-down; remark: listed apart in the source

Row | Binder | binding result (GST-Sall1 (full length) [1]) | binding result (GST-Sall1 (full length) [2])
1 | B1 | binds | –
2 | B2 | binds | binds
